This passage reports Kd results from PMC10076285, “Oncogenic CALR mutant C-terminus mediates dual binding to the thrombopoietin receptor triggering complex dimerization and activation” (Nature Communications, 2023).

One may read the Kd as a measure of binding affinity in units of concentration.

For this test, the target named is T1, Recombinant human TpoR extracellular domain D1-D4 with mature N-glycans (human, UniProt P40238 26-489, mature N-glycans (4 N-glycans on the ECD)).
T1 construct: thrombopoietin receptor (TpoR), human, extracellular domain D1-D4, starts at Q26 and ends at T489; details in Supplementary Methods; also called TpoR D1-D4; hTpoR D1-D4; source: Schneider S2 cells, purified; not shown: His tag, C-terminal, kept
T1 sequence (looked up): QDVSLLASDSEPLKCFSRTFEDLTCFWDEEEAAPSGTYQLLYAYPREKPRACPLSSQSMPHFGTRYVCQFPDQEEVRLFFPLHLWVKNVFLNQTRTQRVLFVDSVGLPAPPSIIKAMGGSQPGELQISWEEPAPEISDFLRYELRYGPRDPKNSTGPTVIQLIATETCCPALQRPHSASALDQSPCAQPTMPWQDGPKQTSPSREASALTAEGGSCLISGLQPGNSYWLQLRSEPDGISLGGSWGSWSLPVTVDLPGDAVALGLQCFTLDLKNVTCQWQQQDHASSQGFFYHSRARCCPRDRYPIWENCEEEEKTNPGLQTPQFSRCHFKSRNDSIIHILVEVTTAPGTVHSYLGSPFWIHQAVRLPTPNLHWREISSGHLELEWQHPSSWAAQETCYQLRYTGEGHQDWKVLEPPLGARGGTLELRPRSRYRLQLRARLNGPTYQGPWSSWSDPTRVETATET
Nature of the test: MST; CALR del52 labelled with RED-NHS at 20 nM; label-free TpoR D1-D4 titrated 0.15 nM to 5 μM; Tris-based MST buffer with 0.01% Tween 20; Monolith NT.115, 40% LED, medium MST power. The note with it: both partners purified.

B1: Recombinant human CALR del52 (natural protein)
chain: EPAVYFKEQFLDGDGWTSRWIESKHKSDFGKFVLSSGKFYGDEEKDKGLQTSQDARFYALSASFEPFSNKGQTLVVQFTVKHEQNIDCGGGYVKLFPNSLDQTDMHGDSEYNIMFGPDICGPGTKKVHVIFNYKGKNVLINKDIRSKDDEFTHLYTLIVRPDNTYEVKIDNSQVESGSLEDDWDFLPPKKIKDPDASKPEDWDERAKIDDPTDSKPEDWDKPEHIPDPDAKKPEDWDEEMDGEWEPPVIQNPEYKGEWKPRQIDNPDYKGTWIHPEIDNPEYSPDPSIYAYDNFGVLGLDLWQVKSGTIFDNFLITNDEAYAEEFGNETWGVTKAAEKQMKDKQDEEQRTRRMMRTKMRMRRMRRTRRKMRRKMSPARPRTSCREACLQGWTEA
modifications: RED-NHS dye on lysines (in the MST experiment only)
As to B1, the Kd was around 104 nM.
